Literature values, collected in paper PMC4340714.

Target: Mst2 kinase domain (Homo sapiens) (UniProt Q13188)
Sequence of UniProt Q13188 (Q13188 27-278): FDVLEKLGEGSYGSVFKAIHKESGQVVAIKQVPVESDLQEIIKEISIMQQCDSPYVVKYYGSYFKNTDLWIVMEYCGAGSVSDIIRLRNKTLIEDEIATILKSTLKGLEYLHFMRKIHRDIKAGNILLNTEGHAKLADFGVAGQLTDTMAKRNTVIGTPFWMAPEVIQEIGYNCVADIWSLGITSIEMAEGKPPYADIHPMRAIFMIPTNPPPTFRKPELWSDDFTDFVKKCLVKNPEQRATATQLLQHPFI

Mst1 kinase domain (from UniProt Q13043)
Kd: 36 µM
